Assays:
[1] = target: T1, N4posG321V (Abl kinase domain hinge mutant) (Homo sapiens, UniProt P00519, G321V); assay: ClyA-AS nanopore tweezers single-channel current recording: ligand binding to N4posG321V
T1 construct: His10-TEV (N, cleaved yes); made in house; host or cells: E. coli BL21(DE3)pLysS, co-expressed with YopH phosphatase
T1 sequence (P00519 229-512 G321V): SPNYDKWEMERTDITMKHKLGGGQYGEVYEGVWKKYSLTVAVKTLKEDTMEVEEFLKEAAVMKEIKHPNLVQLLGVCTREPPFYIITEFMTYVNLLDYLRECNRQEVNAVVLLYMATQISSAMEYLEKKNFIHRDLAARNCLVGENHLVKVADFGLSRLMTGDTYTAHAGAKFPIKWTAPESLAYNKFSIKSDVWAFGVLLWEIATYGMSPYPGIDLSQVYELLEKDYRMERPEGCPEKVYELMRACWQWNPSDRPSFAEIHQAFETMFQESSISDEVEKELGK

Abl kinase = details: read-out: reported KD of ATP; cited from earlier work
[2] = target: T2, N4posAbl (Abl kinase domain with N-terminal KRKKSGG tag) (Homo sapiens, UniProt P00519); assay: ClyA-AS nanopore tweezers single-channel current recording: ligand binding to N4posAbl
T2 sequence (P00519 229-512): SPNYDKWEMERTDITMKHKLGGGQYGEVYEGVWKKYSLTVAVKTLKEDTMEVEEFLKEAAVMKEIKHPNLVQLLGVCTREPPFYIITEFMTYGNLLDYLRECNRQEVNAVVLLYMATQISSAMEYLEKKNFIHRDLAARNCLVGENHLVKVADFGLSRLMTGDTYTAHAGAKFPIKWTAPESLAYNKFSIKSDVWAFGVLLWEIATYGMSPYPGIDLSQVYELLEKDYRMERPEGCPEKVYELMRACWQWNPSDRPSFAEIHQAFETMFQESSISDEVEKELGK

[3] = target: T3, N4posG321V: Abl kinase domain (residues 229-512) hinge mutant G321V with the N4pos tag (KRKKSGG) at its … (human, UniProt P00519 229-512, G321V); assay: ClyA nanopore tweezers (single-channel current recording); single Abl kinase molecule trapped in a ClyA-AS nanopore in a DPhPC bilayer; Abltide titrated with 10 mM MgCl2; occupancy of the bound state against concentration fitted with a single site binding model; -80 mV, 150 mM NaCl, 100 mM Tris-HCl, pH 7.5, 22 °C, ~100 nM kinase in cis; details: both partners purified
T3 construct: also called Abl G321V
T3 sequence (looked up): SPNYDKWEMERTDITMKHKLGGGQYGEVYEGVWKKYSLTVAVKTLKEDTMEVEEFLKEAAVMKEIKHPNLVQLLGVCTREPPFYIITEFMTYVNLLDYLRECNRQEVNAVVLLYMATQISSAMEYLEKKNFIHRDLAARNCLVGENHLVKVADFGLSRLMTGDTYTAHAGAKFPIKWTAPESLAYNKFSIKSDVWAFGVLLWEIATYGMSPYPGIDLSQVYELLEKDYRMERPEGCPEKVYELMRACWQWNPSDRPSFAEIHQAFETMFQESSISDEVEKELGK

[4] = target: T4, N4posAbl: wildtype Abl kinase domain (residues 229-512) with a positively charged peptide tail (N4pos tag, … (human, UniProt P00519 229-512)); assay: as above; details: both partners purified
T4 sequence (looked up): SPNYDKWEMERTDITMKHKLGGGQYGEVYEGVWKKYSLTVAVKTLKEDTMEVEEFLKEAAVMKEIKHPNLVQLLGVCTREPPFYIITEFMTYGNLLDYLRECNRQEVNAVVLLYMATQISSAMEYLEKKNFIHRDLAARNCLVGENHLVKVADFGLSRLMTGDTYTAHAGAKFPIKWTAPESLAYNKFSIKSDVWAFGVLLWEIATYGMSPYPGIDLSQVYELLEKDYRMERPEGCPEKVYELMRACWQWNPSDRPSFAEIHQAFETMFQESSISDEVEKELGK

[5] = target: T5, kinase substrate peptide Abltide (Homo sapiens, UniProt P00519); assay: Enzyme-coupled Abl kinase assay (NADH consumption), Michaelis-Menten kinetics; type: biochemical
T5 sequence (P00519 229-512): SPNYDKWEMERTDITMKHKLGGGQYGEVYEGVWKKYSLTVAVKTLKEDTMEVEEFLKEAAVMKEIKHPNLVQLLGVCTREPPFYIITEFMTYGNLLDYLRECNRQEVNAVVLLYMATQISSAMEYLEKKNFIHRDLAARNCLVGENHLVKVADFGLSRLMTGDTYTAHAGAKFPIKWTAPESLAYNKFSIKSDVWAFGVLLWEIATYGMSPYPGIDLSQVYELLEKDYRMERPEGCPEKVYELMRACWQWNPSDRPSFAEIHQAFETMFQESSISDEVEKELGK
Procedure: (§1) Absorbance at 340 nm was monitored with a microtiter plate spectrophotometer (BioTek Synergy 2) for 30 min. The background kinase activity was determined in the reaction mix without the substrate peptide and subtracted from the experiments with the substrate peptide. To obtain the enzyme kinetics, initial phosphorylation rates at different substrate peptide concentrations (50~800 µM) were measured. Plots of the initial rate as a function of peptide substrate concentration were fit by nonlinear regression to obtain the Michaelis-Menten kinetic parameters.

[6] = tested on: kinase substrate peptide Abltide; assay: as above; type: biochemical; details: for Vmax / kcat: Abltide 50~800 µM, […] ATP, 30 nM kinase, 30 °C; for catalytic activity: Michaelis-Menten kinetic analysis
Procedure: as §1

[7] = Conformational state analysis of apo Abl kinases in ClyA-AS nanopore (S1/S2 and S1 sub-state dwell times, populations, rate constants, free energy); design: species or system human

ATP
effect on N4posG321V current trace [1]: did not trigger any change in the current trace
Kd (Abl kinase): 69 ± 4 µM

[Cl-].[Cl-].[Mg+2] [MgCl2]
effect on N4posAbl current signal / conformational states [2]: did not trigger any noticeable change

KKGEAIYAAPFA (Abl substrate peptide Abltide) [kinase substrate peptide Abltide]
Kd [3]: 257 ± 55.9 µM
Kd [4]: 69.9 ± 13 µM

B1: Abl: wildtype Abl kinase domain (residue 229-512) (protein)
chain: SPNYDKWEMERTDITMKHKLGGGQYGEVYEGVWKKYSLTVAVKTLKEDTMEVEEFLKEAAVMKEIKHPNLVQLLGVCTREPPFYIITEFMTYGNLLDYLRECNRQEVNAVVLLYMATQISSAMEYLEKKNFIHRDLAARNCLVGENHLVKVADFGLSRLMTGDTYTAHAGAKFPIKWTAPESLAYNKFSIKSDVWAFGVLLWEIATYGMSPYPGIDLSQVYELLEKDYRMERPEGCPEKVYELMRACWQWNPSDRPSFAEIHQAFETMFQESSISDEVEKELGK
kcat [5]: 7.1 ± 0.7 s⁻¹
Vmax [6]: 12.8 ± 1.3 µM/min
kcat [6]: 7.112 ± 0.717 s⁻¹

B2: N4posG321V: N4posAbl hinge mutant G321V intended to enhance rigidity; catalytically inactive (protein)
chain: SPNYDKWEMERTDITMKHKLGGGQYGEVYEGVWKKYSLTVAVKTLKEDTMEVEEFLKEAAVMKEIKHPNLVQLLGVCTREPPFYIITEFMTYVNLLDYLRECNRQEVNAVVLLYMATQISSAMEYLEKKNFIHRDLAARNCLVGENHLVKVADFGLSRLMTGDTYTAHAGAKFPIKWTAPESLAYNKFSIKSDVWAFGVLLWEIATYGMSPYPGIDLSQVYELLEKDYRMERPEGCPEKVYELMRACWQWNPSDRPSFAEIHQAFETMFQESSISDEVEKELGK
catalytic activity [6]: abrogated the catalytic activity
τS1 ([7]; N4posG321V, 16 pores, single S1 dwell events): 1005.56 ms
τS1 (ms), 16 pores ([7]; N4posG321V, individual S1 dwell times, 16 pores): 214.2 ms

B3: N4posAbl: Abl kinase domain with positively charged peptide tail KRKKSGG at its N-terminus (protein)
chain: SPNYDKWEMERTDITMKHKLGGGQYGEVYEGVWKKYSLTVAVKTLKEDTMEVEEFLKEAAVMKEIKHPNLVQLLGVCTREPPFYIITEFMTYGNLLDYLRECNRQEVNAVVLLYMATQISSAMEYLEKKNFIHRDLAARNCLVGENHLVKVADFGLSRLMTGDTYTAHAGAKFPIKWTAPESLAYNKFSIKSDVWAFGVLLWEIATYGMSPYPGIDLSQVYELLEKDYRMERPEGCPEKVYELMRACWQWNPSDRPSFAEIHQAFETMFQESSISDEVEKELGK
Vmax [6]: 13.3 ± 1.1 µM/min
kcat [6]: 7.395 ± 0.585 s⁻¹
catalytic activity [6]: no influence on the catalytic activity
τS1 ([7]; N4posAbl, pore #1, single S1 dwell events): 443.75 ms
τS1 ([7]; N4posAbl, pore #3, single S1 dwell events): 1114.75 ms
τS2 ([7]; N4posAbl, pore #3, single S2 dwell events): 3255.5 ms

Reference: publication PMC9209526 (Nature Communications, 2022)
